Several values for one entry are separate records, joined by “and”; a condition that tells them apart may be missing. Equal entries are not always repeated.
B1: Rvb1 (enzyme, S. cerevisiae, UniProt Q03940 1-463, looked up)
chain: MVAISEVKENPGVNSSNSGAVTRTAAHTHIKGLGLDESGVAKRVEGGFVGQIEAREACGVIVDLIKAKKMSGRAILLAGGPSTGKTALALAISQELGPKVPFCPLVGSELYSVEVKKTETLMENFRRAIGLRIKETKEVYEGEVTELTPEDAENPLGGYGKTISHVIVGLKSAKGTKTLRLDPTIYESIQREKVSIGDVIYIEANTGAVKRVGRSDAYATEFDLETEEYVPLPKGEVHKKKEIVQDVTLHDLDVANARPQGGQDVISMMGQLLKPKKTEITEKLRQEVNKVVAKYIDQGVAELIPGVLFIDEVNMLDIEIFTYLNKALESNIAPVVVLASNRGMTTVRGTEDVISPHGVPPDLIDRLLIVRTLPYDKDEIRTIIERRATVERLQVESSALDLLATMGTETSLRYALQLLAPCGILAQTSNRKEIVVNDVNEAKLLFLDAKRSTKILETSANYL
B2: MBP-Ino80INS (insertion domain of the Ino80 ATPase, residues 1022-1294, MBP fusion with C-terminal histidine tag) (domain or fragment, yeast, UniProt P53115 1022-1294, looked up)
chain: VDSPFSFTTFGKTTSMLTASVANNNSSVISNSNMNLSSMSSNNISNGKFTDLIYSSRNPIKYSLPRLIYEDLILPNYNNDVDIANKLKNVKFNIFNPSTNYELCLFLSKLTGEPSLNEFFRVSTTPLLKRVIERTNGPKNTDSLSFKTITQELLEVTRNAPSEGVMASLLNVEKHAYEREYLNCIQRGYHPNVSAPPVTIEVLGSSHVTNSINNELFDPLISQALSDIPAITQYNMHVKKGIPVEDFPKTGLFPEPLNKNFSSNISMPSMDRF

Experiments:
Rvb2 [1] = target: T1, Rvb2 (S. cerevisiae, UniProt Q12464 1-471); experiment: intact denatured mass spectrometry
T1 sequence (Q12464 whole entry): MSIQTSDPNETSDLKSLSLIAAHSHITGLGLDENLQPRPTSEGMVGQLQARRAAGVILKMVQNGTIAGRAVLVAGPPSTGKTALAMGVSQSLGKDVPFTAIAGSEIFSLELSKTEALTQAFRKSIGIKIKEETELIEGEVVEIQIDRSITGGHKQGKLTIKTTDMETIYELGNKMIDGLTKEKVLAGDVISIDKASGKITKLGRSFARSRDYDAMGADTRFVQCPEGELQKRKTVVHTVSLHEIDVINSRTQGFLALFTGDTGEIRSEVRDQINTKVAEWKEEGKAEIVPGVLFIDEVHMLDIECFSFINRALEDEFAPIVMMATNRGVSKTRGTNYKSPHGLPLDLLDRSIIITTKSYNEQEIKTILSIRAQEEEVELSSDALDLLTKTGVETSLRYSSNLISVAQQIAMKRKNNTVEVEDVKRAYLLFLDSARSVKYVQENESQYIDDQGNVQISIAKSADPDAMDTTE

Rvb2 [2] = target: T1, Rvb2; experiment: native MS
[3] = target: T2, Rvb1/Rvb2 complex (untagged hexamer) (S. cerevisiae, UniProt Q03940 1-463; Q12464 1-471); experiment: native MS
T2 sequence (Q12464 whole entry, one chain of several): as the sequence (Q12464 whole entry) above

[4] = target: T2, Rvb1/Rvb2 complex (untagged hexamer); experiment: SEC-MALS

| Binder | stoichiometry N (Rvb2 [1]) | stoichiometry N (Rvb2 [2]) | stoichiometry N [3] | stoichiometry N [4] |
| --- | --- | --- | --- | --- |
| B1 | 1 Rvb1 per Rvb2 (3:3) | 1 Rvb1 per Rvb2 (3:3 in the hexamer) | – | – |
| B2 | – | – | 3 copies of Ino80INS per Rvb1/Rvb2 dodecamer and 1 copies of MBP-Ino80INS per Rvb1/Rvb2 hexamer and 2 copies of Ino80INS per Rvb1/Rvb2 dodecamer | ≥ 2 copies of Ino80INS per Rvb1/Rvb2 dodecamer |

Reference: article PMC5564220 (Cell reports, 2017)
